Measurements: patent US20180346594A1

Key:
[1] = target: 16C3 antigen (human colorectal and pancreatic carcinoma-associated antigen, CPAA, recognized by the 16C3 antibody) (human); assay: FACS, LS174T colorectal cells, secondary antibody only
[2] = target: 16C3 antigen (human colorectal and pancreatic carcinoma-associated antigen, CPAA, recognized by the 16C3 antibody) (human); assay: FACS, CFPAC-1 pancreatic cells, secondary antibody only
[3] = target: 16C3 antigen (human colorectal and pancreatic carcinoma-associated antigen, CPAA, recognized by the 16C3 antibody) (human); assay: FACS, LS174T cells, secondary antibody only
[4] = target: 16C3 antigen (human colorectal and pancreatic carcinoma-associated antigen, CPAA, recognized by the 16C3 antibody) (human); assay: FACS, AsPC-1 pancreatic cells, secondary antibody only
[5] = target: 16C3 antigen (human colorectal and pancreatic carcinoma-associated antigen, CPAA, recognized by the 16C3 antibody) (human); assay: FACS, AsPC-1 cells, secondary antibody only
[6] = target: 16C3 antigen (human colorectal and pancreatic carcinoma-associated antigen, CPAA, recognized by the 16C3 antibody) (human); assay: FACS, HT-29 colorectal cells, secondary antibody only
[7] = target: 16C3 antigen (human colorectal and pancreatic carcinoma-associated antigen, CPAA, recognized by the 16C3 antibody) (human); assay: FACS, CFPAC-1 cells, secondary antibody only
[8] = target: 16C3 antigen (human colorectal and pancreatic carcinoma-associated antigen, CPAA, recognized by the 16C3 antibody) (human); assay: FACS, AsPC-1 cells, 100 ng antibody
[9] = target: 16C3 antigen (human colorectal and pancreatic carcinoma-associated antigen, CPAA, recognized by the 16C3 antibody) (human); assay: FACS, HT-29 colorectal cells
[10] = target: 16C3 antigen (human colorectal and pancreatic carcinoma-associated antigen, CPAA, recognized by the 16C3 antibody) (human); assay: FACS, LS174T colorectal cells
[11] = target: 16C3 antigen (human colorectal and pancreatic carcinoma-associated antigen, CPAA, recognized by the 16C3 antibody) (human); assay: FACS, AsPC-1 cells, 1 ug antibody
[12] = target: 16C3 antigen (human colorectal and pancreatic carcinoma-associated antigen, CPAA, recognized by the 16C3 antibody) (human); assay: FACS, AsPC-1 cells, 5 uL
[13] = target: 16C3 antigen (human colorectal and pancreatic carcinoma-associated antigen, CPAA, recognized by the 16C3 antibody) (human); assay: FACS, AsPC-1 pancreatic cells
[14] = target: 16C3 antigen (human colorectal and pancreatic carcinoma-associated antigen, CPAA, recognized by the 16C3 antibody) (human); assay: FACS, AsPC-1 cells, 20 ng antibody
[15] = target: 16C3 antigen (human colorectal and pancreatic carcinoma-associated antigen, CPAA, recognized by the 16C3 antibody) (human); assay: FACS, AsPC-1 cells, 4 ng antibody
[16] = target: 16C3 antigen (human colorectal and pancreatic carcinoma-associated antigen, CPAA, recognized by the 16C3 antibody) (human); assay: FACS, AsPC-1 cells, 0.8 ng antibody
[17] = target: 16C3 antigen (human colorectal and pancreatic carcinoma-associated antigen, CPAA, recognized by the 16C3 antibody) (human); assay: FACS, CFPAC-1 pancreatic cells

Substance: Goat anti-Mouse IgG-FITC control (fluorescein-labelled goat anti-mouse antibody, secondary reagent alone)
- % Cell Staining [1]: 0.94%
- mfi [1]: 15 mfi
- % Cell Staining [2]: 0.83%
- mfi [2]: 14 mfi
- % LS174T tumor cell binding [3]: 1.63%
- MFI [3]: 43 MFI
- % Cell Staining [4]: 2.68%
- mfi [4]: 30 mfi
- % AsPC-1 Cells Stained [5]: 1.01%
- % AsPC-1 tumor cell binding [5]: 1.55%
- MFI [5]: 70 MFI
- mfi [5]: 8 mfi
- % Cell Staining [6]: 0.84%
- mfi [6]: 10 mfi

Substance: Rabbit anti-Human IgG-FITC control (secondary reagent alone) (antibody)
- % binding to LS174T cells [3]: 3.49%
- mfi [3]: 33 mfi
- % AsPC-1 tumor cell binding [5]: 2.05%
- MFI [5]: 59 MFI
- % binding to CFPAC-1 cells [7]: 2.1%
- mfi [7]: 20 mfi

Substance: 16C3 mAb (murine monoclonal antibody, IgG1 heavy chain, kappa light chain)
- % AsPC-1 tumor cell binding [8]: 61.7%
- MFI [8]: 228 MFI
- % Cell Staining [9]: 91%
- mfi [9]: 78 mfi
- % Cell Staining [10]: 40.6%
- mfi [10]: 59 mfi
- % AsPC-1 Cells Stained [11]: 89.5%
- mfi [11]: 138 mfi
- % AsPC-1 Cells Stained [12]: 81.4%
- mfi [12]: 34 mfi
- % Cell Staining [13]: 69.9%
- mfi [13]: 36 mfi
- % AsPC-1 tumor cell binding [14]: 47.9%
- MFI [14]: 69 MFI
- % AsPC-1 tumor cell binding [15]: 4.26%
- MFI [15]: 52 MFI
- % AsPC-1 tumor cell binding [16]: 1.28%
- MFI [16]: 615 MFI
- % Cell Staining [17]: 96.2%
- mfi [17]: 323 mfi
